# Source: patent publication US20100093563A1 (published 2010)
# B1: 2G12 domain exchanged Fab fragment displayed on phage (Fab, V domains shown)
# VH: EVQLVESGGGLVKAGGSLILSCGVSNFRISAHTMNWVRRVPGGGLEWVASISTSSTYRDYADAVKGRFTVSRDDLEDFVYLQMHKMRVEDTAIYYCARKGSDRLSDNDPFDAWGPGTVVTVSP
# VL: GVVMTQSPSTLSASVGDTITITCRASQSIETWLAWYQQKPGKAPKLLIYKASTLKTGVPSRFSGSGSGTEFTLTISGLQFDDFATYHCQHYAGYSATFGQGTRVEIKR
# notes: also called 2G12 Fab; phage from 2G12 pCAL G13 vector
# Target: T1, ovalbumin (UniProt P01012 2-386)
# T1 sequence: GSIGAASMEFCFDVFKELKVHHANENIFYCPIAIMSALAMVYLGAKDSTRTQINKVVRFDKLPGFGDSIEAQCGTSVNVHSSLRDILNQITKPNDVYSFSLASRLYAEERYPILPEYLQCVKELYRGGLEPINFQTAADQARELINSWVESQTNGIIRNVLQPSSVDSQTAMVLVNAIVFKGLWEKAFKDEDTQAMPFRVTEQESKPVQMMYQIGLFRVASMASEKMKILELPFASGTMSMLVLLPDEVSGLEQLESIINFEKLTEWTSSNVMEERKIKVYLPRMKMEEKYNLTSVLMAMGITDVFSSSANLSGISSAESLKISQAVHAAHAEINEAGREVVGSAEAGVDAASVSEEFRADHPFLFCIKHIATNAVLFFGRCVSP
# Experiment: phage ELISA, ovalbumin coated 100 ng per well, anti-HA or anti-M13 detection
binder,measurement,value
B1,binding result,no binding
